B1: 885 (protein, listed as Bifidobacterium indicum)
chain: MTTDKHLQAKDLDIEKEASLTSGSDAWHLQGVPDQGYPEYMITDGPYGLRKATGSDVYGSVPATCFPPTAGLASSWNPDLTYQVGQAMGEECIQEEVAVILGPGINIKRSPLGGRNFEYYSEDPVLAGHQAAGLVDGVQSKGVGTSLKHFAANNQETDRLRVSSDIDERTLREIYLPAFEYVVKHAKPWTIMCAYNKLNGVYGSENRWLLTDVLRGEWGYQGLVMSDWGAVHDRAAALRAGLNLEMPPSASDHEVVEAVRAGNLDKDQLDRMAQGVLDLIEKAKPAMSQKGYRYDVEAHDQVARQAAQESIVMLKNEDGVLPLAPGEKVALIGEFARTPRYQGGGSSHITPTKVTTALDSFKETGMDVDFVPGFTLDEAPQDQSLTDQAVKAAADADKVVLFLGLPEDAESEGFDRTDIDLPTKQLDLLRAVSQVNDQVVVVLSNGSVVSVVDWLPQAKAVLESWLLGQAGGQAVVDILTGGANPSGRLPETIPVRLEDNPSITSFPGEEGHSRYGEGIYVGYRYYDTFNKPVAFPFGFGLSYSTFEISNVRVEKTGPNAVRVDLTVTNTSGIDGAETVQVYVAPCASKVGRPSHELKSFAKVFLKAGESQEISLDLDERDFAYWSTAMNEWHVEAGTYGIEVGTSSRDLVSKLDVDLDGDGLFVRLNSNSTMEEWREDQVGGPIMKSHVEGGKVPLPNDPNTAKLFDSMPLASVITLSGGDGNSVVADMITDYQKAIEQQGLTGASRGSE
B2: 857 (protein, listed as Streptomyces venezuelae)
chain: MTETGAHTAADAARESVVEAALAKLDLDSKTRLLAGQDMWSLPALPEIGLTSLVMSDGPIGVRGVRWTADDPSVALPSPTALAAAWDPALARRAGRLLAQEARRKGVHVLLAPTVNLHRTPLGGRHFEAYSEDPLLTGAIGTGYVQGVQDGGVGTTVKHFVANDAETDRFTVDNRIAPRPLRELYLAPFEAIVKNAHPWGIMTAYNQVNGVTMTEHRHLVNEVLRGEWGFDGFNVSDWMAARSTTGDIEGGLDVAMPGPQTVYGEALAAAVRAGEVEESTVDAAVRNVLRLAARVGALEGAPPVVTDPPAAIDGDALAREIAHRGFVLVRNENGALPLKNGTVALSGAAARDARVLGGGSAQVFPEHIVSPLDGLTAALPEGALTYTIGADPSDELTPADQGFTLRAVCRDASGTVLGEGTLPNGQVQWIGDDLPAGVTHEALASIEVVGRFTPRETGEHAFGTRGLGAFRLSVDGETLFDGVQALGPETDPFEAFFGSPVERAKVVLTAGETVDVSLLHTLDKEFAAPLPAVMFSFVHLGPRRDPDELIAEAVEAARAADTAVVVVATTERVESEGFDRKDLALPGRQDDLVRAVAAANPNTVVVVNAGSPVELPWREEVAAVLLSWFPGQEGGAALADVLTGAEEPGGRLPTTWPAALADAPVTEVTPTGGELDYAEGVFIGYRAWDKAGAVPAYAFGHGLGYTTWTYESLTARPGTATVRLTNTGDRPGREVVQVYLAPVDDGVERPARWLAGFGCVEAGPGETVETEIALPRRAFEIWDEEKNDWSFVGGAYEVLAARSLTDARLSATLEV
B3: 814 (protein, listed as Bifidobacterium reuteri)
chain: MSETNATPTYPSVKDLTLEEKASLTSGGDAWHLQSVEHKGIPGYMITDGPHGLRKSLASNTSETDLNDSVPATCFPPAAGLSSSWNPALIRKVGEVMGEECVQEKVAVILGPGVNIKRNPLGGRCFEYWSEDPYLAGHEAVGIVEGVQSKGVGTSLKHFAANNQETDRLRVDARISQRALREIYLPAFEHIVKTAQPWTIMCSYNRINGVHSAQNHWLLTDVLRDEWGFKGIVMSDWGADHDRVASLNAGLNLEMPPSYTDDQIVYAARDGRIDPAQLDRMAQGMIDLTNKARAAMSIDGYRFDVDAHDEVARQAAVESIVMLKNEDAILPIDPAGGKKLAVIGEFARTPRYQGGGSSHITPTKMTSFLDALDERGIKADFAPGFTLDLAPADSALTLEAVETARDADVVLMFLGLPEEAESEGFDRTTLDIPAKQIELLRQVAAENPNVVVVLSNGSVVTVHPWADASKSILESWLLGQAGGRALADVVFGEASPSGKLAQSIPMDINDDPSMLNWPGEEGHVDYGEGVFVGYRYYDTYNKAVDYPFGYGLSYATFEIGDVAVAKTGANTASVTATVTNTSDTPAAETVQVYVAPGKADVARPVHELKGFEKVFLGAGESKTVTIELNERAFAYWSEKYNDWHVEAGEYTVEVGVSSRDIAASIAVTLDGDGKSMPLNEWSTFGEWSADPVGAKVVEAVGAAGERGDMPKLPDNDMMRLFLNSMPINSLPTLLGESGKDLTAFMLDEYAALTK
B4: 842 (protein, listed as Nonomuraea sp.)
chain: MNLQDKASLLSGRDFWSTKPVGDVPAAVLSDGPHGVRRQTGEADHVGIHESLPATCFPPAVAVGSSWDPAVAGRLAAAVAVEARALDVQINLGPGVNIKRSPLCGRNFEYYSEDPLLTGVLAAAHVEALQAGGVGASVKHFAANNQETGRMRVSAEIDERTLREIYLPAFERVVKHARPATVMAAYNKVNGVYASQHPWLLTRVLREEWGFDGVVVSDWGAVNDRVAALKAGLDLEMPGNPANDAMIVQAVRDGELDEAVVDRSVARVRAMVRAWRPEPAAFDADAHHALARELAAECAVLLKNDGDTLPIRADVQTIAVLGPFATEPRFQGGGSSHVTPTRVDSPLEEIRRLAGDRVVTADPDDADLAIVFAGPADLDESEGYDRAGLDLPAEQVELIRATAAAARRTVVVLSNGGVVSLEGWHDEVDAILEGWLLGQAGGGAIADLLFGVAAPSGRLAETIPMRLQDTASYLNFPGEQDVVRYGEGVMVGYRYHETAGRPVRYPFGHGLTYTTFAVSDLTVRVTGDDSARVSVTVANTGRRYGKHVVQLYVATQAGPVRRPARELRAFTKVGLEPGRSTTVTFDLDARAFAYWDVKEGRWLVAPGDYTVQIGENASAVVAEETIELAGEVIARELTLDSSVGEWFAHPQVGPVLMRHVAATMTEEQRAAAAEHQDLLRMIESLPMHQFLSPMGVRLPDQAVREMMELSRRPQ
B5: 853 (protein, listed as Clostridium oryzae)
chain: MKRDIKEIVSKMTLEEKAGLCSGLDFWHTKGVERLGVPSIMVTDGPHGLRKQDTSADHLGINDSVPATCFPSGATLACSWDRSLLQKVGTALGEECQAEGVSVILGPAANIKRSPLCGRNFEYFSEDPYLSTEMAANHIKGVQSQGVGTSLKHFAVNNQEHRRLSVDAEVDERTLREIYLASFEGAVKQSQPWTVMCSYNKVNGTYASENEYLLTSILKEEWGHEGFVMSDWGAVDRRENALKAGLELEMPSSNGIGDNRIVQAVKNGELKEEVLDKAVERLLNIIFKAVDNKKEGAVYDREQHHSLARKIAGECMVLLKNEDNILPLKKEGKIAVIGGFVDKYRYQGGGSSHIKPNKLDNAAEELKKAAKGENIVFAKGFSLDNDEVDSKLMEEAKNAAASAETAVIFAGLPDRYESEGYDRSHMRIPDNQIALINAIAEVQKNIVVVLSNGSPIEMPWIGNVKGILEAYLGGEAGAGAIADILFGEVNPSGKLAESFPKKLSDNPSYLNFPGEGDTVEYKEGLFVGYRYYDKKEVETLFPFGYGLSYTTFEYKNITVDKKNITDEEKLVVKVTVKNTGKLTGKEIVQLYVRDVESSVIRPVKELKGFEKVELAAGEEKTVEFVLDKRTFAYYNVDIKDWYVESGDFEILIGSSSKDIYLKDVVNVEGTTAVKKIYTRNSTVGDVMANPQARKLTEELLSSTFGQGTDDSENLGTDMTAMMKDMTLRSILHFGGDKSKEKELDKILEMLNK
B6: 886 (protein, listed as Brachyspira suanatina)
chain: MNDNKYSQKIKELMKEMTLEEKVSLLSGKDFWSTKAIDRLKIDSVYLTDGPHGVRKQSTESDELSLQKSVSSTCFPTACCSACSFDPNIMYEMGEAISREAKANKVSVVLGPGVNIKRSPLCGRNFEYFSEDPYLAGKMASGWINGLEDNGIQSSLKHFAANNQETLRLIIDSVVDERALREIYLYAFEIAVKEAKPSTVMCAYNSVNGTFASENKYLLTDILRDEWGFDGIVVSDWGAVNDRVEALKAGLDLQMPSTNGEDDRKVYNAVKETIIDEKILDKAVERLLYFSLYSMDNIYDNFDYDKEEHHNIARKIAENSIVLLKNQDKILPAKKESKIAVIGEFAQKPRYQGNGSSLINAYKIDTAEEYFKENNIEFDYAKGYDSNSADIDNALIEEAVNISKDKDIVIIFAGLINSYESEGFDRKHLNLPENHNHLIEEISKVNKNVVVVLSIGAPVLMPWIDKVKGVLNLYLAGEAAVSAAFNIIFGVVNPSGKLAESFPLSLEDNPSYKYFPGGNKAVEYRESIFVGYRYYDKAQKNVLFPFGFGLSYTTFQFSNLIVSDANTIAGLDNIHVVFDIKNTGDVFGCEVAQVYISAPENNVFKPHKELKSFIKVFLEPGETKTVILKLNKRSFSFYNADTKQYEIESGVYTIYIGNSSRNLLLSKTMEINSINYYQKRIDNYFNFKEINISDNEFQQLLGRKLKPINIKASKPYHLNNNLSDLLDNNIAKEFYNKLLSGLNDMFKDDKTDTKKMFESMMLETPLRSLHTMSGGIITREDVENLINTLNK

How the values were obtained:
Format in all cases: biochemical, Quillaja saponaria
[1] = Experiment 5-1: screening of additional glucosidases for deglycosylation with purified QS-18 (0.04 mg/ml) at pH 7.5 and 30 deg C; conditions: pH 7.5, 30 degrees C, 18 hours, LCMS/MS
Procedure: The 94 additional genes, together with positive control (DNA encoding SEQ ID No. 262) and negative control, were transformed, expressed, lysed and reacted in the same manner as described above for Experiment 4-1, except the reaction was incubated at 30 degrees C. for 18 hours.
Samples were analysed by LCMS/MS according to the procedure in Experiment 4-1.

[2] = Experiment 5-2: screening of additional glucosidases for deglycosylation with QS-18 in crude bark extract (80%) at pH 6 and 35 deg C; conditions: CBE 80%, pH 6, 35 deg C, 18 hours; UV HPLC
Procedure: A plate was lysed at pH 6 as described in Experiment 4-2. 40 uL of clarified lysate was transferred to a reaction plate
The pH of CBE was adjusted to pH 6 by dropwise addition of 2M NaOH with stirring. 160 uL of pH 6 CBE was added to each well of the reaction plate. The reaction plate was sealed and incubated at 35 deg C. with shaking for 18 hours.
The reaction plate was quenched by adding 200 uL of MeCN (2% acetic acid (AcOH), 1 mg/mL hexanophenone) to each well of the plates. The quenched reaction plate was re-sealed and incubated at 20 deg C. with shaking for 10 min. The reaction plate was then centrifuged (10 min, 4 degC).
200 uL was transferred from each well of the quenched plate to the corresponding wells of a fresh 96 well plate and sealed. The plate was analysed by UV HPLC with the method of Experiment 4-4.

[3] = Experiment 5-3: screening of additional glucosidases for deglycosylation with QS-18 in treated bark extract (80%) at pH 6 and 35 deg C; conditions: TBE 80% (QS-21 approx. 4 g/L), pH 6, 35 deg C; UV HPLC
Procedure: Experiment 5-1 was repeated, replacing CBE with Treated Bark Extract (TBE) at pH 6. TBE was prepared from CBE by PVPP treatment and concentration, to provide TBE with a QS-21 concentration of approximately 4 g/L. TBE was adjusted to pH 6 by dropwise addition of 2M NaOH with stirring.

Row | Molecule | Experiment 5-1 % conv [1] [%] | Experiment 5-2 % conv [2] [%] | Experiment 5-3 % conv [3] [%]
1 | B1 | 54.8 | <0.5 | <0.5
2 | B2 | 69.0 | <0.5 | <0.5
3 | B3 | 58.4 | <0.5 | <0.5
4 | B4 | 64.0 | <0.5 | <0.5
5 | B5 | 67.7 | <0.5 | 2.5
6 | B6 | 55.5 | <0.5 | <0.5
